Paper PMC11555649, “Yop1 stability and membrane curvature generation propensity are controlled by its oligomerisation interface” (Biochemical Journal, 2024)

B1: Yop1 (wildtype, full length, Saccharomyces cerevisiae) (natural protein, UniProt Q12402 1-180, looked up)
chain: MSEYASSIHSQMKQFDTKYSGNRILQQLENKTNLPKSYLVAGLGFAYLLLIFINVGGVGEILSNFAGFVLPAYLSLVALKTPTSTDDTQLLTYWIVFSFLSVIEFWSKAILYLIPFYWFLKTVFLIYIALPQTGGARMIYQKIVAPLTDRYILRDVSKTEKDEIRASVNEASKATGASVH
notes: Yop1, Saccharomyces cerevisiae, UniProt Q12402, full length gene in pCold I; Integral membrane protein, kept in DDM detergent micelles; tags removed with TEV protease; also called WT; wildtype Yop1; source: E. coli C43, purified (Strep-Tactin, TEV cleavage, His-tag resin flow-through, SEC) in DDM; not shown: (His)9, N-terminal, cleaved; Twin-Strep-tag, N-terminal, cleaved
B2: Yop1 P71L variant (natural protein, Saccharomyces cerevisiae, UniProt Q12402 1-180, looked up)
chain: MSEYASSIHSQMKQFDTKYSGNRILQQLENKTNLPKSYLVAGLGFAYLLLIFINVGGVGEILSNFAGFVLLAYLSLVALKTPTSTDDTQLLTYWIVFSFLSVIEFWSKAILYLIPFYWFLKTVFLIYIALPQTGGARMIYQKIVAPLTDRYILRDVSKTEKDEIRASVNEASKATGASVH
notes: Yop1, Saccharomyces cerevisiae, UniProt Q12402, full length gene in pCold I, with P71L; Homologous to the REEP1 SPG31 mutation P19L; prone to aggregation in preparative SEC; source: E. coli C43, purified (Strep-Tactin, TEV cleavage, His-tag resin flow-through, SEC) in DDM; not shown: (His)9, N-terminal, cleaved; Twin-Strep-tag, N-terminal, cleaved
B3: Yop1 S75F variant (natural protein, Saccharomyces cerevisiae, UniProt Q12402 1-180, looked up)
chain: MSEYASSIHSQMKQFDTKYSGNRILQQLENKTNLPKSYLVAGLGFAYLLLIFINVGGVGEILSNFAGFVLPAYLFLVALKTPTSTDDTQLLTYWIVFSFLSVIEFWSKAILYLIPFYWFLKTVFLIYIALPQTGGARMIYQKIVAPLTDRYILRDVSKTEKDEIRASVNEASKATGASVH
notes: Yop1, Saccharomyces cerevisiae, UniProt Q12402, full length gene in pCold I, with S75F; Homologous to the REEP1 SPG31 mutation S23F; source: E. coli C43, purified (Strep-Tactin, TEV cleavage, His-tag resin flow-through, SEC) in DDM; not shown: (His)9, N-terminal, cleaved; Twin-Strep-tag, N-terminal, cleaved
B4: Yop1 A72E variant (natural protein, Saccharomyces cerevisiae, UniProt Q12402 1-180, looked up)
chain: MSEYASSIHSQMKQFDTKYSGNRILQQLENKTNLPKSYLVAGLGFAYLLLIFINVGGVGEILSNFAGFVLPEYLSLVALKTPTSTDDTQLLTYWIVFSFLSVIEFWSKAILYLIPFYWFLKTVFLIYIALPQTGGARMIYQKIVAPLTDRYILRDVSKTEKDEIRASVNEASKATGASVH
notes: Yop1, Saccharomyces cerevisiae, UniProt Q12402, full length gene in pCold I, with A72E; Homologous to the REEP1 SPG31 mutation A20E; source: E. coli C43, purified (Strep-Tactin, TEV cleavage, His-tag resin flow-through, SEC) in DDM; not shown: (His)9, N-terminal, cleaved; Twin-Strep-tag, N-terminal, cleaved

What was measured:
[1] = biological target: the molecule itself; assay: SEC-MALS; self-association; 100 µl at 1-1.4 mg/ml on Superdex 200 10/300GL; 20 mM HEPES pH 7.5, 150 mM NaCl, 5% glycerol; protein in DDM micelles, protein and detergent masses separated
[2] = biological target: the molecule itself; assay: native gel or EMSA; Blue native PAGE, NativePAGE 4-16% Bis-Tris gel, ~0.8 mg/ml protein in DDM micelles, 150 V, 4°C; self-association

Protein | stoichiometry N [1] | stoichiometry N [2]
B1 | 2 | –
B2 | – | 2
B3 | – | 2
B4 | 2 | –
